± gives the standard deviation of the averaged measurements.
Tested on: ATP
Test: switch fluorescence ratio, 500 uM ATP over buffer (Cy3 cluster intensity, sum of 5 cycles each) (fold (ratio)); higher = stronger signal-on switching upon ATP binding; sequences stand for … in TCGTCGGCAGCGTCAGATGTGTATAAGAGACAGTTTTTTTTTTTTTTTTTTTTTTTTT…TC
Conditions: aptamer strand: ATP DNA aptamer (quencher-CACCTGGGGGAGTATTGCGGAGGAAGG + anchor), 100 nM annealed; ATP concentration: 500 uM
Method in brief: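 Cy3-labelled switching-strand clusters on a modified Illumina MiSeq flow-cell were annealed to 100 nM quencher-labelled ATP aptamer, imaged in selection buffer, then imaged after 15 min with 500 uM ATP at 22 °C. Five buffer/ATP cycles ran, with NaOH stripping and re-annealing between them. The fluorescence ratio is summed target-cycle over summed buffer-cycle Cy3 intensity per cluster, averaged per switch-domain sequence. Clusters outside 100-1000 RFU were excluded.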
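Note: ATP exposure 15 min at 22 °C before imaging.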

Row | Sequence | switch fluorescence ratio
1 | TATAAAAGGG | 1.03 ± 0.078
2 | TATAAAATCT | 1.02 ± 0.082
3 | TATAAACCGC | 1.22 ± 0.11
4 | TATAAAGAGC | 1.08 ± 0.081
5 | TATAAAGGGA | 1.04 ± 0.029
6 | TATAAAGTGG | 1.03 ± 0.022
7 | TATAAATGGC | 1.01 ± 0.029
8 | TATAAATGTG | 0.978 ± 0.027
9 | TATAAATTGG | 1 ± 0.032
10 | TATAACCTGT | 1.015 ± 0.0089
11 | TATAACTATT | 0.999 ± 0.042
12 | TATAACTTAA | 1.03 ± 0.026
13 | TATAAGAAAA | 0.978 ± 0.013
14 | TATAAGACAA | 1.02 ± 0.022
15 | TATAAGCACG | 1.096 ± 0.0066
16 | TATAAGGCGC | 0.949 ± 0.032
17 | TATAAGGGGA | 1 ± 0.039
18 | TATAAGGTCC | 0.98 ± 0.019
19 | TATAAGTACA | 1.38 ± 0.04
20 | TATAAGTACG | 1.27 ± 0.016
21 | TATAAGTAGT | 0.956 ± 0.011
22 | TATAAGTTAT | 0.993 ± 0.029
23 | TATAAGTTTG | 0.999 ± 0.015
24 | TATAATAGCT | 1.02 ± 0.023
25 | TATAATATCG | 0.961 ± 0.015
26 | TATAATATTT | 1 ± 0.021

Row | Sequence | switch fluorescence ratio
27 | TATAATCGGG | 0.989 ± 0.015
28 | TATAATTGGG | 0.9921 ± 0.0015
29 | TATAATTTTT | 1.03 ± 0.074
30 | TATACAACGA | 1.03 ± 0.021
31 | TATACAATTG | 1.01 ± 0.017
32 | TATACACATT | 1.02 ± 0.035
33 | TATACAGAGG | 0.983 ± 0.032
34 | TATACGAATT | 1.02 ± 0.074
35 | TATACGGAAG | 1.02 ± 0.046
36 | TATAGACTTA | 0.994 ± 0.026
37 | TATAGAGATG | 1.01 ± 0.036
38 | TATAGCATCT | 1.047 ± 0.01
39 | TATAGCCCGT | 1.02 ± 0.016
40 | TATAGCGGGG | 1.02 ± 0.015
41 | TATAGGCGCT | 0.994 ± 0.035
42 | TATAGGCGGT | 1.12 ± 0.2
43 | TATAGGGGTT | 1.02 ± 0.061
44 | TATAGGTCAG | 0.985 ± 0.011
45 | TATAGGTGCG | 0.9891 ± 0.0049
46 | TATAGGTTT | 1.01 ± 0.02
47 | TATAGTATTG | 0.9861 ± 0.0087
48 | TATAGTGGCC | 0.998 ± 0.022
49 | TATAGTGGCG | 1.02 ± 0.051
50 | TATAGTTCGG | 1.01 ± 0.013
51 | TATATAAAGA | 1.03 ± 0.035
52 | TATATAAGAT | 1 ± 0.058

Row | Sequence | switch fluorescence ratio
53 | TATATAATTT | 0.987 ± 0.012
54 | TATATACGGG | 1.05 ± 0.032
55 | TATATAGGGA | 0.981 ± 0.026
56 | TATATATCTC | 0.9917 ± 0.0089
57 | TATATCAGTC | 1.02 ± 0.058
58 | TATATCGGCT | 1.03 ± 0.023
59 | TATATCTAAA | 0.973 ± 0.044
60 | TATATGACTT | 1 ± 0.012
61 | TATATGAGAT | 1.01 ± 0.017
62 | TATATGGAAG | 0.984 ± 0.03
63 | TATATGGGAT | 1.006 ± 0.0035
64 | TATATGGGTA | 0.982 ± 0.057
65 | TATATGTCGT | 0.99 ± 0.01
66 | TATATGTTTT | 0.968 ± 0.013
67 | TATATTACTG | 1.09 ± 0.12
68 | TATATTCGCT | 0.988 ± 0.012
69 | TATATTTAGC | 1 ± 0.033
70 | TATATTTG | 0.9883 ± 0.0065
71 | TATATTTGTC | 1.04 ± 0.032
72 | TATCAAAAAT | 0.994 ± 0.013
73 | TATCAACCTT | 1.25 ± 0.34
74 | TATCACAGTT | 1.01 ± 0.035
75 | TATCACTTTA | 1.088 ± 0.0043
76 | TATCAGAGGA | 1.04 ± 0.013
77 | TATCAGGTCC | 0.9982 ± 0.0069
78 | TATCAGTTCG | 0.9961 ± 0.006

Row | Sequence | switch fluorescence ratio
79 | TATCATCGGT | 1 ± 0.047
80 | TATCATGCCG | 0.967 ± 0.037
81 | TATCATGTCG | 0.986 ± 0.031
82 | TATCCAATCA | 0.9719 ± 0.0081
83 | TATCCATGGA | 1.01 ± 0.026
84 | TATCCCATAC | 1.49 ± 0.073
85 | TATCCCGGTG | 1.82 ± 0.043
86 | TATCCTGTTT | 1.04 ± 0.011
87 | TATCGACGTT | 0.97 ± 0.038
88 | TATCGCCGAA | 0.997 ± 0.037
89 | TATCGCGTTC | 1.09 ± 0.078
90 | TATCGGCAAT | 4.42 ± 0.76
91 | TATCGGGGGA | 0.985 ± 0.061
92 | TATCGGGGT | 0.989 ± 0.013
93 | TATCGTAGGG | 1 ± 0.022
94 | TATCGTCTAC | 1.015 ± 0.0033
95 | TATCGTGAGT | 0.9822 ± 0.0071
96 | TATCTCTACT | 1.03 ± 0.017
97 | TATCTGTCAA | 1.11 ± 0.032
98 | TATCTGTGCC | 0.96 ± 0.054
99 | TATCTGTTTC | 1.01 ± 0.016
100 | TATCTTTGCG | 0.965 ± 0.01
101 | TATGAAAGGC | 0.991 ± 0.053
102 | TATGAAAGTA | 0.999 ± 0.033
103 | TATGAACCGT | 0.984 ± 0.052
104 | TATGAAGTTG | 0.985 ± 0.015

Row | Sequence | switch fluorescence ratio
105 | TATGAATGGG | 1.01 ± 0.021
106 | TATGAGCCTG | 0.968 ± 0.047
107 | TATGAGGTAA | 1.02 ± 0.028
108 | TATGAGGTTG | 1 ± 0.03
109 | TATGAGTAAG | 0.978 ± 0.027
110 | TATGATCACG | 0.995 ± 0.011
111 | TATGATCAGG | 0.9933 ± 0.0025
112 | TATGATGGGA | 0.9911 ± 0.0093
113 | TATGATTGGG | 1.008 ± 0.0013
114 | TATGCACGGA | 1.07 ± 0.09
115 | TATGCCAGCG | 1.01 ± 0.025
116 | TATGCGAGTC | 0.952 ± 0.036
117 | TATGCGTCGA | 0.979 ± 0.013
118 | TATGCGTTGG | 1.007 ± 0.0024
119 | TATGCTAGC | 1.03 ± 0.091
120 | TATGCTAGGG | 0.977 ± 0.036
121 | TATGCTAGTA | 0.992 ± 0.025
122 | TATGCTGAAT | 1 ± 0.015
123 | TATGGAATGT | 0.998 ± 0.0062
124 | TATGGAGGAG | 0.981 ± 0.017
125 | TATGGAGGGA | 0.996 ± 0.021
126 | TATGGAGTTT | 1.01 ± 0.013
127 | TATGGATTGT | 1.01 ± 0.04
128 | TATGGCCAAT | 1.03 ± 0.03
129 | TATGGCGCAT | 0.993 ± 0.043
130 | TATGGCTGTG | 1.02 ± 0.06

Row | Sequence | switch fluorescence ratio
131 | TATGGGAAGC | 1.03 ± 0.025
132 | TATGGGCGTT | 1 ± 0.011
133 | TATGGGGATG | 1 ± 0.024
134 | TATGGGGGGA | 1.02 ± 0.046
135 | TATGGGGTCA | 0.979 ± 0.018
136 | TATGGTCAGT | 0.968 ± 0.047
137 | TATGGTTCGC | 0.997 ± 0.055
138 | TATGGTTTAA | 0.975 ± 0.042
139 | TATGGTTTGG | 0.987 ± 0.028
140 | TATGGTTTTC | 1.01 ± 0.084
141 | TATGTACGAT | 1.05 ± 0.059
142 | TATGTACTGT | 1.09 ± 0.03
143 | TATGTATTCT | 1 ± 0.017
144 | TATGTCAAG | 1.02 ± 0.016
145 | TATGTCAAGC | 0.96 ± 0.038
146 | TATGTCACAA | 1.03 ± 0.014
147 | TATGTCCGCT | 1.05 ± 0.058
148 | TATGTCTTAT | 0.983 ± 0.027
149 | TATGTGAGGA | 0.989 ± 0.025
150 | TATGTGATCT | 0.9762 ± 0.0052
151 | TATGTGGGCC | 0.97 ± 0.041
152 | TATGTTAAAG | 0.996 ± 0.017
153 | TATGTTAGGC | 1.018 ± 0.01

— the supplement of paper PMC10126150
